Reference: patent US20120276124A1 (Sanofi, published 2012)

biological target: EphA2 receptor (UniProt P29317 24-976, limits assumed); experiment: cell-based or functional assay
Sequence (P29317 24-976 limits assumed): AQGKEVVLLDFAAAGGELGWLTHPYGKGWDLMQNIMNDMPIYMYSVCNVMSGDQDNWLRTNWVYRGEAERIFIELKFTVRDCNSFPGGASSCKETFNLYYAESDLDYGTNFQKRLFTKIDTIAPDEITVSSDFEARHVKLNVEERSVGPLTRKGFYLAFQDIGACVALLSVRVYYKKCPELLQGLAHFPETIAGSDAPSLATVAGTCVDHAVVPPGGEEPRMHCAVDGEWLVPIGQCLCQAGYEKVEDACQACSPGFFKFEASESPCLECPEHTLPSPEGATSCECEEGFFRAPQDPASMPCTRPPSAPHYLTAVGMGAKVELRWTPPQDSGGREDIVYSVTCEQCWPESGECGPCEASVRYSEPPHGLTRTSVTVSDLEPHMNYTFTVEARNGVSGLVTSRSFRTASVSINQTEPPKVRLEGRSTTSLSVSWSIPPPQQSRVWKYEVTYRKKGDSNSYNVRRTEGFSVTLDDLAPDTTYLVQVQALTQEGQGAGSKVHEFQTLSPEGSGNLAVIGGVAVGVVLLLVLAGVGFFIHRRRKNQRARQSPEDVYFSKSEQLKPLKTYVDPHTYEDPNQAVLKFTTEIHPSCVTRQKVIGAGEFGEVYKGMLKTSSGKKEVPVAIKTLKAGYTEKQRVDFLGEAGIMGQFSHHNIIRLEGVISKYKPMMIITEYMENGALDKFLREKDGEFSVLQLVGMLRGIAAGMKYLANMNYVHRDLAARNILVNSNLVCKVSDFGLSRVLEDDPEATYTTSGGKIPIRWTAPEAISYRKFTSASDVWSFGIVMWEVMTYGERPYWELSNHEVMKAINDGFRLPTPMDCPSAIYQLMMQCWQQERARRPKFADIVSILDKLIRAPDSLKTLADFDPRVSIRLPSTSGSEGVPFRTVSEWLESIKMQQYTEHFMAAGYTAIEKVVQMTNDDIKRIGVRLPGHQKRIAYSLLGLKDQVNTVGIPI

Binder | IC50 [pM], +naked hu2H11R35R74 (1 uM); inhibition of growth of MDA-MB231 cells (14C-thymidine uptake) | IC50 [pM], conjugate alone; inhibition of growth of MDA-MB231 cells (14C-thymidine uptake) | ratio (IC50 +naked hu2H11R35R74 / conjugate alone)
hu2H11R35R74-PEG4-NHAc-DM4 (antibody, human IgG1, kappa, V domains shown, may carry L-DM4 through the AcNH-PEG4 linker; sites not stated; maytansinoid L-DM4 attached through the AcNH-PEG4 linker (NHS activated ester; sites not stated); average DAR (UV) 5.9 for the whole antibody) VH: QVQLVQSGAEVVKPGASVKISCKASGYTFTAYYMHWVKQSPVQSLEWIGLVNPYNGFSSYNQKFQGKASLTVDRSSSTAYMELHSLTSEDSAVYYCAREFYGYRYFDVWGQGTAVTVSS VL: not shown | 29700 pM | 147 pM | 202
hu2H11R35R74-PEG8-NHAc-DM4 (antibody, human IgG1, kappa, V domains shown, may carry L-DM4 through the AcNH-PEG8 linker; sites not stated; maytansinoid L-DM4 attached through the AcNH-PEG8 linker (NHS activated ester; sites not stated); average DAR (UV) 4.9 for the whole antibody) VH: QVQLVQSGAEVVKPGASVKISCKASGYTFTAYYMHWVKQSPVQSLEWIGLVNPYNGFSSYNQKFQGKASLTVDRSSSTAYMELHSLTSEDSAVYYCAREFYGYRYFDVWGQGTAVTVSS VL: not shown | 25000 pM | 400 pM | 62
hu2H11R35R74-PEG4-Allyl-DM4 (antibody, human IgG1, kappa, V domains shown, may carry L-DM4 through the Allyl-PEG4 linker; sites not stated; maytansinoid L-DM4 attached through the Allyl-PEG4 linker (NHS activated ester; sites not stated); average DAR (UV) 5.3 for the whole antibody) VH: QVQLVQSGAEVVKPGASVKISCKASGYTFTAYYMHWVKQSPVQSLEWIGLVNPYNGFSSYNQKFQGKASLTVDRSSSTAYMELHSLTSEDSAVYYCAREFYGYRYFDVWGQGTAVTVSS VL: not shown | 7820 pM | 161 pM | 49
hu2H11R35R74-PEG4-NMeAc-DM4 (antibody, human IgG1, kappa, V domains shown, may carry L-DM4 through the AcNMe-PEG4 linker; sites not stated; maytansinoid L-DM4 attached through the AcNMe-PEG4 linker (NHS activated ester; sites not stated); average DAR (UV) 5.4 for the whole antibody) VH: QVQLVQSGAEVVKPGASVKISCKASGYTFTAYYMHWVKQSPVQSLEWIGLVNPYNGFSSYNQKFQGKASLTVDRSSSTAYMELHSLTSEDSAVYYCAREFYGYRYFDVWGQGTAVTVSS VL: not shown | 36400 pM | 217 pM | 168
